The record followed here is article PMC8748714 (2022).

In assay [1] the target is T1, GLP-1R S206A (Homo sapiens).
T1 chain: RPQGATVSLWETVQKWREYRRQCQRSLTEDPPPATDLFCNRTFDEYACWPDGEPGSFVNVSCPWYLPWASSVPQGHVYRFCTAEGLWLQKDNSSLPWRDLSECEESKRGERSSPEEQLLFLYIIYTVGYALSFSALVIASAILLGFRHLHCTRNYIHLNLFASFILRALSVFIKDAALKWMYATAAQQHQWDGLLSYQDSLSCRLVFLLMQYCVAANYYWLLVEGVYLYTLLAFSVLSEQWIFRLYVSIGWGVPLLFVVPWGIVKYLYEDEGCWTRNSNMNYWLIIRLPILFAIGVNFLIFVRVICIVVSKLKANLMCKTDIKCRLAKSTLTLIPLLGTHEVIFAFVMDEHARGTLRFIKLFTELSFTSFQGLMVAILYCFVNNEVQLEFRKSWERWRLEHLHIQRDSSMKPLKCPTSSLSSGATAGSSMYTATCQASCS

Assay [2] addresses T2, GLP-1R L144A (Homo sapiens).
T2 chain: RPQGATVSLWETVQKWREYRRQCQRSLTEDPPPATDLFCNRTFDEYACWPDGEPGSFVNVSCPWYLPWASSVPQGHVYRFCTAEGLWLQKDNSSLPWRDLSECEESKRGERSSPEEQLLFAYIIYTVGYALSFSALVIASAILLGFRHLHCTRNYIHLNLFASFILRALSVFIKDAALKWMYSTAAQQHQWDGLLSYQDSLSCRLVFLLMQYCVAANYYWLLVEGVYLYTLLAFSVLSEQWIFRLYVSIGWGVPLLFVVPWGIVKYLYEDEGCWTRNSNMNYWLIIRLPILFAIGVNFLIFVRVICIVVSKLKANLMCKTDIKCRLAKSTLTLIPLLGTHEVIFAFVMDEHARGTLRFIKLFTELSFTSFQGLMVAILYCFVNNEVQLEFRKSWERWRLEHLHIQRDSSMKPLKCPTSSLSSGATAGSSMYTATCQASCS

The target in assay [3] is T3, GLP-1R P137A (Homo sapiens).
T3 chain: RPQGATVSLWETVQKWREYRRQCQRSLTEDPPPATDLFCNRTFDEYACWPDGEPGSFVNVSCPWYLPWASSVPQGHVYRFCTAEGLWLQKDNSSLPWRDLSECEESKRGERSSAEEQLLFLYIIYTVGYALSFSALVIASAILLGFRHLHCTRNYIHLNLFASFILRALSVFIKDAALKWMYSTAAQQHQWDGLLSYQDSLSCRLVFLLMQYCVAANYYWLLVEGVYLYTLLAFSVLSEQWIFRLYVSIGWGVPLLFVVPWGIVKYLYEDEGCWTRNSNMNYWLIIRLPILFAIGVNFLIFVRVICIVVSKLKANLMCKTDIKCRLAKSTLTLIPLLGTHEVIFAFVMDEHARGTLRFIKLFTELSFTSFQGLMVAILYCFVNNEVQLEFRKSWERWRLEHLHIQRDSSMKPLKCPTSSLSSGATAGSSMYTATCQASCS

The target in assay [4] is T4, GLP-1R Q211A (Homo sapiens).
T4 chain: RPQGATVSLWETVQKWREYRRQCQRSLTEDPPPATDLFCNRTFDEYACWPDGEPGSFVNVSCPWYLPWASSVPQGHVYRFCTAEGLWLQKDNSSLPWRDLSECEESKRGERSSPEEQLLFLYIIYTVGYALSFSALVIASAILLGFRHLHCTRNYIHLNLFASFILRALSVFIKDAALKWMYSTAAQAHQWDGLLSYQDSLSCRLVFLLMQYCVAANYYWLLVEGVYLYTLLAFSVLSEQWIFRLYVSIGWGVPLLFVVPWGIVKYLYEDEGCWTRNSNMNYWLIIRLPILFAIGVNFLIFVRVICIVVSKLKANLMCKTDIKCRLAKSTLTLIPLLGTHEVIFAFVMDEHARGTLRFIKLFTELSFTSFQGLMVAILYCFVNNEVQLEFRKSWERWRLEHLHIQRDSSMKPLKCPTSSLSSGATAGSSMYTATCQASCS

Assay [5] deals with T5, GLP-1R Y145A (Homo sapiens).
T5 chain: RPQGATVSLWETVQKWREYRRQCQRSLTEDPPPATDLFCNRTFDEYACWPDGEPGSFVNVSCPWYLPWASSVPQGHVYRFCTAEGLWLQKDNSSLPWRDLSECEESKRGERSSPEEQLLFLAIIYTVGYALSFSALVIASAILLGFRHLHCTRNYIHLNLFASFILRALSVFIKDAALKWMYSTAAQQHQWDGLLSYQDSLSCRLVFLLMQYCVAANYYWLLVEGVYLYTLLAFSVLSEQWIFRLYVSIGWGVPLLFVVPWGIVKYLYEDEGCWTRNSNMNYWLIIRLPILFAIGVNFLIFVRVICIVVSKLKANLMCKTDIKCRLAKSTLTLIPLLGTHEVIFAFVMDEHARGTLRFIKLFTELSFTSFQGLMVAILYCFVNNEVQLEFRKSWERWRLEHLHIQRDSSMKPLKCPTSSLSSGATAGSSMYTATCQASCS

The target of assay [6] is T6, GLP-1R L201A (Homo sapiens).
T6 chain: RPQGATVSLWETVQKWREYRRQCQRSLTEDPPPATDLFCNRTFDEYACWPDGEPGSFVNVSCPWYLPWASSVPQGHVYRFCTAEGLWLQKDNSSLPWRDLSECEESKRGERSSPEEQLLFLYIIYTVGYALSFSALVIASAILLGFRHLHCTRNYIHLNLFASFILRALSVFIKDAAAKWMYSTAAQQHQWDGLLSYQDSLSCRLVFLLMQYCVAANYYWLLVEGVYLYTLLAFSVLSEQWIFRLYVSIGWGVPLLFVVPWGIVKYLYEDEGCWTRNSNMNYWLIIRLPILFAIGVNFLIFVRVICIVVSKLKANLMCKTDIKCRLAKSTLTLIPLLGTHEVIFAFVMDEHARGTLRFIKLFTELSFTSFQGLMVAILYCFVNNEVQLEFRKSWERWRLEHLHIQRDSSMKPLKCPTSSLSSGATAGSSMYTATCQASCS

No end group written: not given here.

The term IC50 denotes the concentration at which inhibition is half-maximal. A low value points to higher potency.

As for HAEGTFTSDVSSYLEGQAAKEFIAWLVKGR (not fully specified (C-terminus)) [glucagon-like peptide-1], the IC50 in assay [1] is 4.9 nM; in assay [2], 11 nM; in assay [3], 40.7 nM; in assay [4], 2.34 nM; in assay [5] it was 6.17 nM; in assay [6], 38.9 nM.
HSQGTFTSDYSKYLDSRRAQDFVQWLMNTKRNRNNIA [oxyntomodulin]: the half-inhibitory concentration (IC50) in assay [1] was found to be 16.6 nM; in assay [2] it was 51.3 nM; in assay [3], 74.1 nM; in assay [4] it was 19.5 nM; in assay [5], 24.5 nM; in assay [6], 107 nM.
